In article PMC7856178 (Archives of biochemistry and biophysics, 2020):
Where two headings read alike, the source gives them in different places.

Tests used:
Assay in all cases: FRET or BRET
FRET or BRET [1] = molecular target: the molecule itself
FRET or BRET [2] = molecular target: the molecule itself; remark: listed apart in the source
FRET or BRET [3] = molecular target: the molecule itself; remark: listed apart in the source

B1: CYP2E1 labeled with BODIPY-618 maleimide (enzyme, human, UniProt P05181 1-493, looked up)
chain: MSSMWRQVHSSWNLPPGPFPLPIIGNLFQLELKNIPKSFTRLAQRFGPVFTLYVGSQRMVVMHGYKAVKEALLDYKDEFSGRGDLPAFHAHRDRGIIFNNGPTWKDIRRFSLTTLRNYGMGKQGNESRIQREAHFLLEALRKTQGQPFDPTFLIGCAPCNVIADILFRKHFDYNDEKFLRLMYLFNENFHLLSTPWLQLYNNFPSFLHYLPGSHRKVIKNVAEVKEYVSERVKEHHQSLDPNCPRDLTDCLLVEMEKEKHSAERLYTMDGITVTVADLFFAGTETTSTTLRYGLLILMKYPEIEEKLHEEIDRVIGPSRIPAIKDRQEMPYMDAVVHEIQRFITLVPSNLPHEATRDTIFRGYLIPKGTVVVPTLDSVLYDNQEFPDPEKFKPEHFLNENGKFKYSDYFKPFSTGKRVCAGEGLARMELFLLLCAILQHFNLKPLVDPKDIDLSPIHIGFGCIPPRYKLCVIPRS
modifications: BODIPY-618 maleimide label, 2:1 label to protein ratio (labelled residues not stated)
- (Lipid/CYP2E1)50% (FRET or BRET [1]): 604 molar ratio
- (Lipid/CYP2E1)50% (FRET or BRET [2]): 176 molar ratio
- (Lipid/CYP2E1)50% (FRET or BRET [3]): 14400 molar ratio
